# Data as given in patent US11653679B2, “High-purity steviol glycosides” (PureCircle Sdn Bhd, priority 2014, dated 2023).
# Substitutions are numbered along the chain they refer to.
# B1: UGT76G1var7: UGT76G1 variant, mutations F22L_I43V_A239V (protein, UniProt Q6VAB4 1-458, looked up, variant F22L I43V A239V)
# UDP-glycosyltransferase 76G1: MENKTETTVRRRRRIILFPVPLQGHINPILQLANVLYSKGFSVTIFHTNFNKPKTSNYPHFTFRFILDNDPQDERISNLPTHGPLAGMRIPIINEHGADELRRELELLMLASEEDEEVSCLITDALWYFAQSVADSLNLRRLVLMTSSLFNFHAHVSLPQFDELGYLDPDDKTRLEEQASGFPMLKVKDIKSAYSNWQILKEILGKMIKQTKASSGVIWNSFKELEESELETVIREIPVPSFLIPLPKHLTASSSSLLDHDRTVFQWLDQQPPSSVLYVSFGSTSEVDEKDFLEIARGLVDSKQSFLWVVRPGFVKGSTWVEPLPDGFLGERGRIVKWVPQQEVLAHGAIGAFWTHSGWNSTLESVCEGVPMIFSDFGLDQPLNARYMSDVLKVGVYLENGWERGEIANAIRRVMVDEEGEYIRQNARVLKQKADVSLMKGGSSYESLESLVSYISSL
# B2: UGT76G1var30: UGT76G1 variant, mutations I43V_E224A_S241I (protein, UniProt Q6VAB4 1-458, looked up, variant I43V E224A S241I)
# UDP-glycosyltransferase 76G1: B1 UDP-glycosyltransferase 76G1 with L22F, E224A, V239A, S241I
# B3: UGT76G1var11: UGT76G1 variant, mutations F22L_A33G_V310I (protein, UniProt Q6VAB4 1-458, looked up, variant F22L A33G V310I)
# UDP-glycosyltransferase 76G1: B1 UDP-glycosyltransferase 76G1 with A33G, V43I, V239A, V310I
# B4: UGT76G1var20: UGT76G1 variant, mutations S375M_K393G_Y397E (protein, UniProt Q6VAB4 1-458, looked up, variant S375M K393G Y397E)
# UDP-glycosyltransferase 76G1: B1 UDP-glycosyltransferase 76G1 with L22F, V43I, V239A, S375M, K393G, Y397E
# B5: UGT76G1var18: UGT76G1 variant, mutations L243P_S274G_N409R (protein, UniProt Q6VAB4 1-458, looked up, variant L243P S274G N409R)
# UDP-glycosyltransferase 76G1: B1 UDP-glycosyltransferase 76G1 with L22F, V43I, V239A, L243P, S274G, N409R
# B6: UGT76G1var31: UGT76G1 variant, mutations E224D_L243P_V300A (protein, UniProt Q6VAB4 1-458, looked up, variant E224D L243P V300A)
# UDP-glycosyltransferase 76G1: B1 UDP-glycosyltransferase 76G1 with L22F, V43I, E224D, V239A, L243P, V300A
# B7: UGT76G1var26: UGT76G1 variant, mutations S241I_F265L_F377C (protein, UniProt Q6VAB4 1-458, looked up, variant S241I F265L F377C)
# UDP-glycosyltransferase 76G1: B1 UDP-glycosyltransferase 76G1 with L22F, V43I, V239A, S241I, F265L, F377C
# B8: UGT76G1var34: UGT76G1 variant, mutations I43V_T284I_I295T (protein, UniProt Q6VAB4 1-458, looked up, variant I43V T284I I295T)
# UDP-glycosyltransferase 76G1: B1 UDP-glycosyltransferase 76G1 with L22F, V239A, T284I, I295T
# B9: UGT76G1var8: UGT76G1 variant, mutations E224A_Q266S_Q342E (protein, UniProt Q6VAB4 1-458, looked up, variant E224A Q266S Q342E)
# UDP-glycosyltransferase 76G1: B1 UDP-glycosyltransferase 76G1 with L22F, V43I, E224A, V239A, Q266S, Q342E
# B10: UGT76G1var22: UGT76G1 variant, mutations E231A_V310I_R334K (protein, UniProt Q6VAB4 1-458, looked up, variant E231A V310I R334K)
# UDP-glycosyltransferase 76G1: B1 UDP-glycosyltransferase 76G1 with L22F, V43I, E231A, V239A, V310I, R334K
# B11: UGT76G1var17: UGT76G1 variant, mutations F265L_Q266E_Q342K (protein, UniProt Q6VAB4 1-458, looked up, variant F265L Q266E Q342K)
# UDP-glycosyltransferase 76G1: B1 UDP-glycosyltransferase 76G1 with L22F, V43I, V239A, F265L, Q266E, Q342K
# B12: UGT76G1var27: UGT76G1 variant, mutations A239I_L379A_V394I (protein, UniProt Q6VAB4 1-458, looked up, variant A239I L379A V394I)
# UDP-glycosyltransferase 76G1: B1 UDP-glycosyltransferase 76G1 with L22F, V43I, V239I, L379A, V394I
# B13: UGT76G1var14: UGT76G1 variant, mutations A239I_F265I_V396F (protein, UniProt Q6VAB4 1-458, looked up, variant A239I F265I V396F)
# UDP-glycosyltransferase 76G1: B1 UDP-glycosyltransferase 76G1 with L22F, V43I, V239I, F265I, V396F
# B14: UGT76G1var29: UGT76G1 variant, mutations F22Y_V279I_N409R (protein, UniProt Q6VAB4 1-458, looked up, variant F22Y V279I N409R)
# UDP-glycosyltransferase 76G1: B1 UDP-glycosyltransferase 76G1 with L22Y, V43I, V239A, V279I, N409R
# B15: UGT76G1var32: UGT76G1 variant, mutations A239V_L243A_S375M (protein, UniProt Q6VAB4 1-458, looked up, variant A239V L243A S375M)
# UDP-glycosyltransferase 76G1: B1 UDP-glycosyltransferase 76G1 with L22F, V43I, L243A, S375M
# B16: UGT76G1var24: UGT76G1 variant, mutations A239I_P272A_Q425E (protein, UniProt Q6VAB4 1-458, looked up, variant A239I P272A Q425E)
# UDP-glycosyltransferase 76G1: B1 UDP-glycosyltransferase 76G1 with L22F, V43I, V239I, P272A, Q425E
# B17: UGT76G1var33: UGT76G1 variant, mutations A33G_R334H_Y397Q (protein, UniProt Q6VAB4 1-458, looked up, variant A33G R334H Y397Q)
# UDP-glycosyltransferase 76G1: B1 UDP-glycosyltransferase 76G1 with L22F, A33G, V43I, V239A, R334H, Y397Q
# B18: UGT76G1var10: UGT76G1 variant, mutations A33G_L246F_Q342E (protein, UniProt Q6VAB4 1-458, looked up, variant A33G L246F Q342E)
# UDP-glycosyltransferase 76G1: B1 UDP-glycosyltransferase 76G1 with L22F, A33G, V43I, V239A, L246F, Q342E
# B19: UGT76G1var23: UGT76G1 variant, mutations T263S_G348P_A352G (protein, UniProt Q6VAB4 1-458, looked up, variant T263S G348P A352G)
# UDP-glycosyltransferase 76G1: B1 UDP-glycosyltransferase 76G1 with L22F, V43I, V239A, T263S, G348P, A352G
# B20: UGT76G1var15: UGT76G1 variant, mutations F41L_L246F_Q425E (protein, UniProt Q6VAB4 1-458, looked up, variant F41L L246F Q425E)
# UDP-glycosyltransferase 76G1: B1 UDP-glycosyltransferase 76G1 with L22F, F41L, V43I, V239A, L246F, Q425E
# B21: UGT76G1var35: UGT76G1 variant, mutations T284L_F314S_S357N (protein, UniProt Q6VAB4 1-458, looked up, variant T284L F314S S357N)
# UDP-glycosyltransferase 76G1: B1 UDP-glycosyltransferase 76G1 with L22F, V43I, V239A, T284L, F314S, S357N
# B22: UGT76G1var12: UGT76G1 variant, mutations L243P_K303G_A352G (protein, UniProt Q6VAB4 1-458, looked up, variant L243P K303G A352G)
# UDP-glycosyltransferase 76G1: B1 UDP-glycosyltransferase 76G1 with L22F, V43I, V239A, L243P, K303G, A352G
# B23: UGT76G1var28: UGT76G1 variant, mutations L243A_S274G_P382M (protein, UniProt Q6VAB4 1-458, looked up, variant L243A S274G P382M)
# UDP-glycosyltransferase 76G1: B1 UDP-glycosyltransferase 76G1 with L22F, V43I, V239A, L243A, S274G, P382M
# B24: UGT76G1var36: UGT76G1 variant, mutations F265L_L379A_V396F (protein, UniProt Q6VAB4 1-458, looked up, variant F265L L379A V396F)
# UDP-glycosyltransferase 76G1: B1 UDP-glycosyltransferase 76G1 with L22F, V43I, V239A, F265L, L379A, V396F
# B25: UGT76G1var16: UGT76G1 variant, mutations F265I_P272A_I335V (protein, UniProt Q6VAB4 1-458, looked up, variant F265I P272A I335V)
# UDP-glycosyltransferase 76G1: B1 UDP-glycosyltransferase 76G1 with L22F, V43I, V239A, F265I, P272A, I335V
# B26: UGT76G1var25: UGT76G1 variant, mutations T284L_Q342K_Y397Q (protein, UniProt Q6VAB4 1-458, looked up, variant T284L Q342K Y397Q)
# UDP-glycosyltransferase 76G1: B1 UDP-glycosyltransferase 76G1 with L22F, V43I, V239A, T284L, Q342K, Y397Q
# B27: UGT76G1var19: UGT76G1 variant, mutations E224D_E229A_Q432E (protein, UniProt Q6VAB4 1-458, looked up, variant E224D E229A Q432E)
# UDP-glycosyltransferase 76G1: B1 UDP-glycosyltransferase 76G1 with L22F, V43I, E224D, E229A, V239A, Q432E
# B28: UGT76G1var9: UGT76G1 variant, mutations E231A_D301N_G348P (protein, UniProt Q6VAB4 1-458, looked up, variant E231A D301N G348P)
# UDP-glycosyltransferase 76G1: B1 UDP-glycosyltransferase 76G1 with L22F, V43I, E231A, V239A, D301N, G348P
# B29: UGT76G1var13: UGT76G1 variant, mutations L243A_S357C_A385T (protein, UniProt Q6VAB4 1-458, looked up, variant L243A S357C A385T)
# UDP-glycosyltransferase 76G1: B1 UDP-glycosyltransferase 76G1 with L22F, V43I, V239A, L243A, S357C, A385T
# B30: UGT76G1var21: UGT76G1 variant, mutations A239V_V300A_K303G (protein, UniProt Q6VAB4 1-458, looked up, variant A239V V300A K303G)
# UDP-glycosyltransferase 76G1: B1 UDP-glycosyltransferase 76G1 with L22F, V43I, V300A, K303G
# Assay: Directed evolution of UGT76G1, Rebaudioside D to Rebaudioside M, round 1 (Example 26)
# Type: biochemical
# Conditions: 100 μL fresh lysate, 0.5 mM Rebaudioside D, 30° C., pH 7.2
# Experimental: Lysis was performed by addition of Bugbuster® Master mix (Novagen®) to the thawed cells and the lysate was recovered by centrifugation. Activity tests were performed with 100 μL of fresh lysate that was added to a solution of Rebaudioside D (final concentration 0.5 mM), MgCl2 (final concentration 3 mM) and UDP-Glucose (final concentration 2.5 mM) in 50 mM phosphate buffer pH 7.2.
# The reaction was allowed to run at 30° C. and samples were taken after 2, 4, 7 and 24 h. to determine conversion and initial rate by HPLC (CAD detection) using the analytical method that was described above for the transformation of Rebaudioside D to Rebaudioside M. The results are depicted in the following table.
Molecule,conversion Reb D to Reb M after 24 h [%],initial rate [Reb M area/min]
B1,0.2,−6.0E+04
B2,,5.6E+06
B3,0.4,3.8E+04
B4,1.8,1.9E+06
B5,1.9,5.0E+05
B6,0.4,2.4E+05
B7,1.8,7.5E+05
B8,3.4,1.5E+06
B9,0.5,2.3E+04
B10,,2.4E+07
B11,0.7,7.2E+05
B12,29.0,1.5E+07
B13,5.3,1.5E+06
B14,41.0,2.9E+07
B15,0.0,−4.4E+04
B16,31.0,2.1E+07
B17,1.0,7.5E+06
B18,0.3,−7.7E+02
B19,,4.1E+07
B20,5.6,1.5E+06
B21,0.5,1.8E+05
B22,0.5,8.7E+04
B23,6.1,2.4E+06
B24,20.0,8.8E+06
B25,,5.8E+06
B26,0.9,6.3E+04
B27,,5.5E+06
B28,52.0,4.9E+07
B29,0.2,−3.3E+04
B30,,3.3E+07
